Values of other authors as cited in PMC7768499.

Assays:
IgA1 (Homo sapiens) = IgA1 (Homo sapiens) (UniProt P01876)
IgA (Homo sapiens) = IgA (Homo sapiens) (UniProt P01876)
IgA2 (Homo sapiens) = IgA2 (Homo sapiens) (UniProt P01877)
IgA2 (Homo sapiens), sequence (P01877 whole entry): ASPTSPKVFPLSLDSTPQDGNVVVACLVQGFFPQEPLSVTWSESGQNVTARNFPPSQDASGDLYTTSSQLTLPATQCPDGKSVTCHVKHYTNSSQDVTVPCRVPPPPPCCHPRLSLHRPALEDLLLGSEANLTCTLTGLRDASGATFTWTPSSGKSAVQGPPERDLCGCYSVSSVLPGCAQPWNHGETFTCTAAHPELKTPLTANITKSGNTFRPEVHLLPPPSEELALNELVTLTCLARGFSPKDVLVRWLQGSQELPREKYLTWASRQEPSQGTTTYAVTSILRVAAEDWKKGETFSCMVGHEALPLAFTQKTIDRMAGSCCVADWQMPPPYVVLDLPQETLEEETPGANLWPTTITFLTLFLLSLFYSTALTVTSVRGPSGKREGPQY

FcαRI, sequence (P24071 22-287): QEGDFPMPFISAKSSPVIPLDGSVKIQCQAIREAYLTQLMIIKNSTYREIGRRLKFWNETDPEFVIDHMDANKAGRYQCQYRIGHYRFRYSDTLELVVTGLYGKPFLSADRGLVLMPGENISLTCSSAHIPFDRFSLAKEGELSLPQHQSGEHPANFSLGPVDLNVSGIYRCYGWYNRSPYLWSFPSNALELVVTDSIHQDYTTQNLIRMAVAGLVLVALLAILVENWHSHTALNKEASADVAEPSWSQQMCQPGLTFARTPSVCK
IgA (Homo sapiens), sequence (P01876 whole entry): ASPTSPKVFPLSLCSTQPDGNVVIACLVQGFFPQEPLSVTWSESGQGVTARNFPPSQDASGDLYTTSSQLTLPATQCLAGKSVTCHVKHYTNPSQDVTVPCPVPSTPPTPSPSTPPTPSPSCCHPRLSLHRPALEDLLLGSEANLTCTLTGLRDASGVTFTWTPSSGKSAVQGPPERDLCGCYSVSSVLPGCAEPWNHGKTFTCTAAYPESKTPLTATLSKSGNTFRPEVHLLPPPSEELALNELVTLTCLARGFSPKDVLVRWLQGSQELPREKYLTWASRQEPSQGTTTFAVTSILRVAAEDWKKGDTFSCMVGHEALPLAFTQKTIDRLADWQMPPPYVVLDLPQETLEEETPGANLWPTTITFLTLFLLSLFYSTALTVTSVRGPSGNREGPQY
IgA1 (Homo sapiens), sequence (P01876 whole entry): as above

## FcαRI (from UniProt P24071)
IgA1 (Homo sapiens)
  Kd: 155 nM
IgA (Homo sapiens)
  Kd: 20 nM
IgA2 (Homo sapiens)
  Kd: 20 nM
